From patent US9382311

Target: JR-CSF gp120 N276A (HIV-1) (UniProt P20871)
Test: cell-based or functional assay

Substance: VRC01 (antibody)
- increase in neutralization potency: 4 fold
